Data as given in patent US9271932B2, “Fusogenic properties of saposin C and related proteins and peptides for application to transmembrane drug delivery systems” (CHILDREN'S HOSPITAL MEDICAL CENTER, priority 2006, dated 2016).
Each block holds one molecule with its values, some of them ahead of it.

Tests used:
[1] = Fluorescence stopped-flow of saposin C binding to PS vesicles; conditions: PS(18:1,1) or BPS vesicles
Description: To investigate temporal and spatial interactions of saposins and liposomal membrane, fluorescence stopped-flow and quenching approaches are used with Trp as the intrinsic fluorescence probe of the saposins. These experiments allow identification of regional interactions between saposins and lipid bilayers, and also the kinetics of their binding.
This binding induces change is lipid-concentration dependent and requires at least one unsaturated fatty acid chain. To evaluate the kinetics of this interaction, stopped-flow experiments are conducted the change in fluorescence during saposin C/liposome complex formation is monitored. When saposin C(0W) is mixed with PS(18:1,1) or BPS vesicles, fluorescence of Trp is increased, but the time course of this change is undetectable due to limitation of the machine's capability. Apparently, the interaction of saposin C and unsaturated PS containing membranes occurs within at least 10 ms.

[2] = R18 dequenching stopped-flow liposomal fusion assay; assay type: biochemical; conditions: unsaturated PS(18:1,1) vesicles, compared with Ca^2+
Description: Fluorescence probes have been widely used to determine membrane fusion, such as fluorescence dequenching, and fluorescence resonance energy transfer (FET), and can be used for quantitative and kinetics analyses. The dequenching approach is used to investigate saposin C's fusogenic activity. Octadecyl rhodamine B (R18) is selected as fluorescence probe and is entrapped in internal aqueous compartment of liposomal vesicles by co-sonication with BPS or PS(18:1,1).
Fluorescence increase (dequenching) of R18 occurs upon R18 concentration decreases. After non-labeled and labeled vesicles fuse, the R18 concentration is diluted, resulting in an increase in intensity of fluorescence. R18-labeled vesicles (lipid:R18=96:4, mol:mol) are mixed with the same lipid vesicles without fluorescence probe. Stopped-flow assays are conducted to quickly mix these vesicles with saposin C or Ca^2+ ion. Time-trace curves are generated for kinetic analysis. […] Fusion occurs extensively when reaction temperature is above the phase Transition temperature (Tc) of phospholipids. The Tc of synthetic PS(18:1) is about −11° C., while the Tc of PS(18:0) is very high (68° C.). Thus, the lipid bilayer phase of PS(18:1,1) is different to that of BPS(18:0 and 18:1) at 24° C.

[3] = target: T1, acid β-glucosidase (Homo sapiens, UniProt P04062); assay: Acid β-glucosidase activation in liposomal reconstitution system; assay type: biochemical
T1 sequence (P04062 40-536): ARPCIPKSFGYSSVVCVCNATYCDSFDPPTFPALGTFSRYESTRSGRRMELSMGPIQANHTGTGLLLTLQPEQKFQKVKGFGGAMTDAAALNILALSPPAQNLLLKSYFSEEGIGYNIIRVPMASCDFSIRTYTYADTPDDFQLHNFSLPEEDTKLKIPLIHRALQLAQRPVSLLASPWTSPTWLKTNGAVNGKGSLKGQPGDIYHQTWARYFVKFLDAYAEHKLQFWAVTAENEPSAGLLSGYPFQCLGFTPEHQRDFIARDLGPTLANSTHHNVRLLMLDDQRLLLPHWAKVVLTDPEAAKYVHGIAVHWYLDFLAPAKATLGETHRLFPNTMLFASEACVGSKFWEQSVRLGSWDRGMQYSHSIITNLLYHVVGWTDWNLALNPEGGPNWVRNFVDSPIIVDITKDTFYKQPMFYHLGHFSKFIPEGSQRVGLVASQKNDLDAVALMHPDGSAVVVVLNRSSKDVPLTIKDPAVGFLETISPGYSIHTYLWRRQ
Description: Functional saposins were overexpressed in BL21(DE3) cells using a pET 21a series vector. Following IPTG induction at 37° C. or 30° C., large amounts of saposins containing His-Tag were found in the soluble fraction of the disrupted cells. These were conveniently purified to electrophoretic homogeneity on nickel-loaded columns. Alternatively, saposins without His-Tag were generated by introducing a stop codon after protein coding region, and then purified using immuno-affinity columns with T7-taq monoclonal antibody. […] Circular dichroism spectra, light scattering, and ES-MS analyses were used to evaluate the physical properties of the purified saposins, such as aggregation status and molecular weight. Trp-saposins without His-Tag were also generated for necessary control experiments. The functional integrity of recombinant saposin C is determined using delipidated and homogenous acid β-glucosidase in a liposomal reconstitution system and in neuritogenic assays. Recombinant saposin B function is determined using a sulfatide binding assay.

[4] = tested on: cultured mouse cortical and hippocampal neurons; assay: Transport of saposin C into cultured neurons by DOPS liposomes; assay type: cell-based; conditions: facilitated by complexes with DOPS liposomes
Description: Saposin C can be transported into endosomal and lysosomal compartments using saposin-C liposomes containing long-chain anionic phospholipids. This method can be used for the treatment of neurological diseases including, for example, those in which MVB accumulation contributes to pathology and progression of disease.
Primary Cortical Neuron Cultures—Cortical neurons are cultured in serum-free Neuroblasal medium with B27 supplements as described by Whitmarsh et al.^44 Take out E16 mouse embryos, cut the head and place them into ice-cold Ca/Mg-free Hank Balance Salt Solution (HBSS) with papain (1 mg/ml). The brain is dissected out and place scalpel along the dorsal midline between the two cerebral hemispheres but slightly deviate towards to the side as it cut. This will give a clean cerebral cortex. […]
Immunofluorescence staining is done as described with minor modification.^15 Cultured cells (1×10^5) in a dish with coverslips are washed with PBS and fixed with 2% paraformaldehyde for 10 min at room temperature. After treating with 0.1% Triton X-100 in PBS, the samples are incubated with each respective primary antiserum (for 2 h) and fluorescence-conjugated secondary antibody (for 1 h) at 37° C. […] Antifade is added on the section to prevent the fluorescence quenching. Fluorescence signals are detected by a confocal microscopy (LSM510, Zeiss) or a fluorescence microscopy (Zeiss Axioskop).

[5] = Vesicle size change determination (N4 plus submicron particle sizer); assay type: biochemical
Description: The amino acid residues 51-67 are necessary, but not sufficient, for its optimal enzymatic activation function. The disulfide structure and conformational alteration of saposin C upon lipid binding are also required for this activity. Three approaches are used for this study: (1) stopped-flow monitoring reduction of self-quenching resulting from fusion of fluorescence probe-containing vesicle with non-fluorescent vesicle induced by saposin C; (2) monitoring the lipid vesicle size changes upon addition of saposin C to vesicles, the size distribution as determined using N4 plus submicron particle sizer (Coulter Co.); (3) monitoring intrinsic fluorescence of Trp-saposin C change during liposomal fusion.
[…] is used for vesicle fusion analysis, since the size of fused vesicles is bigger than those of non-fused. N4 plus submicron particle size is used to estimate particle sizes in the range of 3 nm to 3 μm since most liposomes fit in this range. Sonication conditions with a cup sonicator give mono-dispersed BPS-liposomes with ˜200 nm in size. Upon addition of saposin C, these vesicles change to a larger size up to 2-3 μm. The size increase is related to vesicles fusion as shown by the above dequenching experiments.
Saposin C promotes the size changes at ˜50 nM concentration. To define the regions responsible for this fusion property, peptides containing only 50% of the NH2-terminal or 50% of the COOH-terminal halves in saposin C are tested. Both peptides show fusion activity.

[6] = Saposin C-PS(18:1,1) liposome complex: stability and mechanism of fusion; assay type: biochemical
Description: Protein conformational changes are thought to play a role in protein-mediated membrane fusion. This fusion mechanism is evaluated using saposin C-dependent membrane fusion. First, saposin C—PS(18:1,1) liposome complexes are formed. In this saposin C-anchored membrane, protein conformation is altered. This complex is stable from pH 3 to 10, and in low concentrations of SDS solution.
Since the Trp in saposin C(0W) is embedded inside of lipid bilayer, the change of its signal is indicative of that the surrounding environment of Trp has been changed. After about 20 to 30 ms, Trp fluorescence signal decreases to the starting level. […] Shortly after this, the signal drops back to starting level signaling on end of the fusion process. […] Therefore, a conformational change of saposin C upon lipid binding is […] for its fusogenic activity.

time within which interaction with unsaturated PS containing membranes occurs [1]: ≤ 10 ms
activation of acid β-glucosidase [3]: excellent activation
B1: Saposin C: Recombinant saposin C, prosaposin-derived fusogenic lysosomal protein, expressed in E. coli (His-tag) (protein, listed as Homo sapiens)
chain: SDVYCEVCEFLVKEVTKLIDNNKTEKEILDAFDKMCSKLPKSLSEECQEVVDTYGSSILSILLEEVSPELVCSMLHLCSG
modifications: His-tag
kinetics of induced membrane fusion [2]: same kinetics as those with Ca^2+
transport into neurons [4]: can be transported into the cultured mouse cortical and hippocampal neurons
concentration promoting the size changes ([5]; BPS-liposomes): ~50 nM
vesicle size after addition of saposin C ([5]; mono-dispersed BPS-liposomes of ~200 nm before addition): 2-3 μm
vesicle size enlargement ([5]; pH 4.7, over a 10 min period): enlarges vesicle size
vesicle size enlargement ([5]; pH 7.4, over a 10 min period): not at pH 7.4
fusogenic activity when bound to lipid membrane [6]: retains the fusogenic activity

B2: Saposin C + Phosphatidylserine (18:1, 1): saposin C complexed with acidic, unsaturated phosphatidylserine PS(18:1,1) liposomes (protein, UniProt P07602 311-390, looked up)
Saposin-C: SDVYCEVCEFLVKEVTKLIDNNKTEKEILDAFDKMCSKLPKSLSEECQEVVDTYGSSILSILLEEVSPELVCSMLHLCSG
modifications: Saposin-C complexed with phosphatidylserine liposomes
notes: saposin C complexed with acidic, unsaturated phosphatidylserine PS(18:1,1) liposomes
stability in low concentrations of SDS solution [6]: stable

effect of Trp substitutions on activation properties [3]: no effect
B3: Saposin C(S37W): saposin C with a Trp at residue 37 (in the middle) (protein, UniProt P07602 311-390, looked up, variant S37W)
Saposin-C: SDVYCEVCEFLVKEVTKLIDNNKTEKEILDAFDKMCWKLPKSLSEECQEVVDTYGSSILSILLEEVSPELVCSMLHLCSG
modifications: Saposin-C
